B1: TCN-543 (5081_G23) (antibody, V domains shown)
VH: QVHLVQSGAEVRKPGDSVKVSCKTSGYTFSTYPVAWVRQVPGQGLEWMGWISTYNGNTNFAQNFQGRVTLTTDTTTNTAYMEVRSLKFDDTAVYYCARVEGSYRDFWNNQNRFDPWGQGTLVTVSS
VL: SYVLTQPPSVSVAPGQTARISCGGSNIGGKSVHWYQQKPGQAPVLVVYDDSGRPSGIPERFSGSNSGDTATLTISRVEAGDEADYFCQVWDNFGGVFGTGTKVTVL
B2: TCN-549 (5092_P04) (antibody, V domains shown)
VH: QVQLVQSGAEVKKPGASVKVSCKASGYTFTGYYMHWVRQAPGQGLEWMGWINPNSGDTNYAQKFQGRVTMTRDTSITTAYMELSSLRSDDTAVYYCARDSPYSSSWSFFDYWGQGPLVTVSS
VL: not shown
B3: TCN-544 (5082_A19) (antibody, V domains shown)
VH: QVQLQESGPGLVKPSETLSLTCTVSRGSIGHYFWSWIRQPPGKGLEWIGYISYSGSTKYNPSLRSRVTISVDTSKNQFSLNLNSVTATDTALYYCAREDYDILTGAGPGMEVWGQGTTVTVSS
VL: QSMLTQPPSASGTPGQRVTISCSGSSSNIGSNTVNWFKHLPGTAPKLLIYRNDLRPSGVPDRFSGSKSGTSASLAISGLQSEDEADYYCATWDDSLNGFYVFGTGTKVTVL
B4: 3245_O19 (antibody, V domains shown)
VH: EVQLVESGGGLVQPGGSLRLSCTASGLSVSSTYMNWVRQAPGKGLEWVSVFYSETRTYYADSVKGRFTVSRHNSNNTLYLQMNSLRVEDTAVYYCARVQRLSYGMDVWGQGTTVTVSS
VL: DIQMTQSPSSLSASVGDRVTITCRASQSISTYLNWYQKRPGKAPKLLVYGASTLQSGVPSRFSGSGSGTDFTLTIASLQPEDSATYYCQQTYSIPLFGQGTRLEIK
B5: 3244_H04 (antibody, V domains shown)
VH: B4 VH with V87A
VL: B4 VL with T53S, T85V
B6: 3139_P23 (antibody, V domains shown)
VH: QVQLQESGPRLVKPSESLSLTCTVSGGSISNSFWGWIRQPPGEGLEWIGYVYNSGNTKYNPSLKSRVTISRDTSKSQLYMKLRSVTAADTAVYYCARHDDASHGYSISWGHGTLVTVSS
VL: DIQMTQSPSSLSASVGDRVTITCRASQTISTYLNWYQQKSGKAPKLLIYAASGLQSGVPSRFSGSGSGTDFTLTISSLQPEDFATYFCQQSYNTPLTFGQGTKVEIK
B7: 3260_D19 (antibody, V domains shown)
VH: DMQLVESGGGLVPPGGSLRLSCAASGFSVSDNYINWVRQAPGKGLDWVSVFYSADRTSYADSVKGRFTVSSHDSKNTVYLQMNSLRAEDTAVYYCARVQKSYYGMDVWGQGTTVTVSS
VL: GIQMTQSPSSLSASVGDRVTITCRASQSISRYLNWYLQKPGKAPKLLISGASSLQSGVPSRFSGTGSGTEFTLTISSLQPEDFATYYCQQTFSIPLFGQGTKVEIK
B8: 3242_P05 (antibody, V domains shown)
VH: B7 VH
VL: B7 VL
B9: 3248_P18 (antibody, V domains shown)
VH: QVQLQESGPGLVKPSETLSLTCTVSGGSISAYHWSWIRQPPGKGLEWIGHIFDSGSTYYNPSLKSRVTISLDASKNQLSLRLTSVTASDTAIYYCARPLGSRYYYGMDVWGQGTTVTVSS
VL: DIQMTQSPSSLSASVGDRVTITCRASQSISRYLNWYQQKPGKAPKLLIYGASTLQNGAPSRFSGSGSGTDFTLTISSLQPEDSATYLCQQSYSVPAFGGGTKVEVK
B10: 3136_G05 (antibody, V domains shown)
VH: QVQLQESGPGLVKPSETLSLTCSVSGGSISSDFWSWIRQPPGKGLEWIGYVYNRGSTKYSPSLKSRVTISADMSKNQFSLNMSSVTAADTAVYYCAKNGRSSTSWGIDVWGKGTTVTVSS
VL: DIQMTQSPSSLSASVGDRLTITCRASQSISTYLHWYQQKPGKAPKLLIYAASSLQSGVPSRFSGSRSGTDFTLTISSLQPDDFATYYCQQSYSPPLTFGPGTKVDMK
B11: 3252_C13 (antibody, V domains shown)
VH: QVQLQESGPGLVKPSETLSLTCTVSGASISSDYWSWIRLPPGKGLEWIGYIYNRGSTKYTPSLKSRVTISLDTAENQFSLRLRSVTAADTAIYYCARHVGGHTYGIDYWGQGTLVTVSS
VL: DIQMTQSPSSLSASVGDRVTITCRASQSISNYLNWYQHKPGEAPKLLNYAASSLQSGVPSRFSASGSGTDFTLTISSLQPEDFATYYCQQSYNTPITFGQGTRLEIK
B12: 3255_J06 (antibody, V domains shown)
VH: B11 VH with I92V
VL: B11 VL with T74S, S77G, Q100P
B13: 3362_B11 (antibody, V domains shown)
VH: QVQLQASGPGLVKPSETLSLTCTVSGDSITSGAYYWTWIRQHPGKGLEWIGYIYYSGNTYYNPSLKSRVTISLDTSKNQFSLKVNSVTAADTAVYYCARAASTSVLGYGMDVWGQGTTVTVSS
VL: B11 VL with N31R, H38Q, K39E, E42K, N48V, A64G, N93S, I96L
B14: 3420_I23 (antibody, V domains shown)
VH: QVQLQESGPGLVKPSETLSVTCKVSGDSISSYSWSWIRQPPGKGLEWVGYLYYSGSTKYNPSLKSRTTISVDTSTNQLSLKLSFVTAADTAVYFCARTGSESTTGYGMDVWGQGTTVTVSS
VL: B11 VL with N31T, H38Q, E42K, N48I, Q55H, A64G, T72A, N93S, T94P
B15: 3259_J21 (antibody, V domains shown)
VH: QVQLQESGPRVVRPSETLSLTCTVSGGSISSYNWIWIRQPPGKGLEWIGHIYDYGRTFYNSSLQSRPTISVDASKNQLSLRLTSVTASDTAVYYCARPLGILHYYAMDLWGQGTTVTVSS
VL: DIQMTQSPLSVSVSVGDRVTIACRASQSIDKFLNWYQQKPGKAPKLLIYGASNLHSGAPSRFSASGSGTDFTLTITNIQTEDFATYLCQQSFSVPAFGGGTKVEIK
B16: 3241_G23 (antibody, V domains shown)
VH: QVQLQQSGPGLVKPSQTLSLTCTVSGGPVSGGGYSWNWIRQRPGQGLEWVGFMFHSGSPRYNPTLKSRITISVDTSKNLVSLKLSSVTAADTAVYFCARVGQMDKYYAMDVWGQGTTVTVSS
VL: DIQMTQSPSSLSSSVGDRVTITCRASQSIGAYVNWYQQKAGKAPQVLIFGASNLQSGVPSRFSGSGSGTDFTLTISSLQPEDFATYFCQQTYSTPITFGQGTRLEIK
B17: 3243_J07 (antibody, V domains shown)
VH: QVQLQESGPGLLKPSDTLALTCTVSGGSITSDYWSWIRQPPGRGLDWIGFFYNGGSTKYNPSLKSRVTISADTSKNQLSLKLTSVTAADTGVYYCARHDVKFSGSYYVASWGQGTRVTVSS
VL: DIQMTQSPSSLSASVGDRVTISCRASQSISTYLNWYQQQPGKAPKVLISGATNLQSGVPSRFSGSGSGTDFTLTISSLQPEDFATYYCQQSYNTPLIFGQGTKLEIK
B18: 3253_P10 (antibody, V domains shown)
VH: B17 VH with V100A
VL: B17 VL with N53D
B19: 3244_I10 (antibody, V domains shown)
VH: B17 VH with V100A
VL: B17 VL with S49F

Positions count from the first letter of the chain named.

The target of the first test is recombinant homotrimeric HA, A/California/4/09 H1N1 (Influenza A virus A/California/4/09 (H1N1)). The test is described as follows: trimeric HA microarray, transfection set 5. As to conditions: remark: other sources report otherwise.
As for B1, the Trimeric HA Binding RLU worked out at 2340 RLU.
Take B2: the Trimeric HA Binding RLU stood at 622 RLU.
Take B3: the Trimeric HA Binding RLU is 706 RLU.

In a further test the target is recombinant homotrimeric HA, A/Japan/305/57 H2N2 (Influenza A virus A/Japan/305/57 (H2N2)). The test is described as follows: trimeric HA microarray, transfection set 5. As to conditions: remark: other sources report otherwise.
As for B2, the Trimeric HA Binding RLU was 1080 RLU.
Regarding B3, the Trimeric HA Binding RLU is 1000 RLU.

For the next test, the target named is recombinant homotrimeric HA, A/Wisconsin/67/05 H3N2 (Influenza A virus A/Wisconsin/67/05 (H3N2)). The test is described as follows: trimeric HA microarray, transfection set 5. As to conditions: remark: other sources report otherwise.
On to B1, for which the Trimeric HA Binding RLU came to 37000 RLU.
Same read-out and setting: as for B2, the figure is 51600 RLU.

A further test concerns the target recombinant homotrimeric HA, A/South Carolina/1/18 H1N1 (Influenza A virus A/South Carolina/1/18 (H1N1)). The test is described as follows: trimeric HA microarray, transfection set 5. The following applies: remark: other sources report otherwise.
Turning to B1, the Trimeric HA Binding RLU was determined as 28300 RLU.
Consider B3, for which the Trimeric HA Binding RLU amounted to 1330 RLU.

For a further test, the target named is recombinant homotrimeric HA, A/Solomon Islands/3/06 H1N1 (Influenza A virus A/Solomon Islands/3/06 (H1N1)). The test is described as follows: trimeric HA microarray, transfection set 5. The following applies: remark: other sources report otherwise.
In the case of B1, the Trimeric HA Binding RLU came to 43500 RLU.
Consider B2, for which the Trimeric HA Binding RLU came out at 640 RLU.
Consider B3, for which the Trimeric HA Binding RLU worked out at 997 RLU.

The target of another test is M2 protein of influenza A/Hong Kong/483/97 (H5N1) (Influenza A virus A/Hong Kong/483/97).
Test: not given
Conditions: not given
B4 registered an FACS M2-HK MFI of 919 MFI.
The molecule B5 displayed an FACS M2-HK MFI of 963 MFI.
On the same count and under the same terms, as for B6, the figure is 110 MFI; as for B7, 846 MFI; as for B8, 596 MFI.
The molecule B9 had an FACS M2-HK MFI of 967 MFI.
Same read-out and setting: as for B10, the figure is 109 MFI; as for B11, 449 MFI; as for B12, 442 MFI.
Still for that read-out and setting: as for B13, the figure is 218 MFI.
B14 returned an FACS M2-HK MFI of 112 MFI.
On the same count and under the same terms, as for B15, the figure is 1670 MFI; as for B16, 1700 MFI; as for B17, 131 MFI.
Still for that read-out and setting: as for B18, the figure is 43 MFI.
The same measure, in the same setting: as for B19, the figure is 434 MFI.

The values above are taken from patent publication US20120207760A1.
